Measurements taken from US20230364193A1, “COMBINED DRUG FOR TREATING CORONARIVUS DISEASE 2019” (SICHUAN UNIVERSITY WEST CHINA HOSPITAL, priority 2020, published 2023).
Read-outs that look alike come from different tables or passages of the source.

Legend:
[1] = tested on: patients with moderate or severe COVID-19; conditions: for clinical improvement rate day 28, (%): called clinical remission rate in b66; for Time for clinical improvement (days), median: called clinical remission; for Time for radiographic improvement (days), median: chest CT, absorption of inflammation; for Time for Viral nucleic acid to turn negative (days), median: real-time fluorescence quantitative PCR; for serious adverse reaction (cases): safety analysis set, the IFN-α case was respiratory failure
SARS-CoV-2 virus = conditions: for EC50 Experiment 1 / EC50 Experiment 2 / EC50 Experiment 3 / EC50 means: Vero-E6; for EC50 means: mean of 3 experiments
Vero-E6 cells = experiment: Cytotoxicity assay on Vero-E6 cells (CCK-8, 48 hours)
Description: • 1) Vero-E6 cells were inoculated in a 96-well plate at 1×10^4 cells per well the day before; • 2) The cell state was observed until the confluence reached about 50%. The rSIFN-co was diluted by 2.17-fold with 2×DMEM medium containing 4% […], as the highest concentration, namely 6×10^8 pg/ml.
The plates were cultured in an incubator at 37° C. and 5% CO2; • 4) 48 hours after adding the drug, 1/10 volume of Cell Counting […] (CCK-8) was directly added to the cell culture medium, mixed well, and air bubbles should be avoided. Cells were incubated in an incubator at 37° C. for 1 hour until the color turned into orange. The blank group was set as zero, and the absorbance at 450 nm was measured with a multifunctional microplate reader, and the survival rate was calculated as follows: survival rate (%)=OD450 of the test group/OD450 of the control group×100%.

[2] = day 7, percent of group, added to baseline treatment
[3] = day 14, percent of group, added to baseline treatment
[4] = day 28, percent of group, added to baseline treatment

## IFN-α
[1]; Day 7
  Radiographic Improvement Rate Day 7, (%): (25.0) %
  Rate for Viral nucleic acid to turn negative Day 7, (%): (31.3) %
[1]; Day 14
  Radiographic Improvement Rate Day 14, (%): (66.7) %
  Rate for Viral nucleic acid to turn negative Day 14, (%): (64.6) %
[1]; Day 28
  Radiographic Improvement Rate Day 28, (%): (79.2) %
  Rate for Viral nucleic acid to turn negative Day 28, (%): (85.4) %
[1]; day 7
  clinical improvement rate day 7, (%): (6.3) %
[1]; [2]
  7-level scale on day 7, 2: Not hospitalized, but unable to return to normal activities, (%): (12.5) %
  7-level scale on day 7, 3: Hospitalized, no need for supplemental oxygen, (%): (25.0) %
  7-level scale on day 7, 4: Hospitalized, requiring supplemental oxygen, (%): (43.8) %
  7-level scale on day 7, 5: Hospitalized, requiring nasal high-flow oxygen therapy or non-invasive mechanical ventilation, (%): (16.7) %
  7-level scale on day 7, 6: Hospitalized, requiring extracorporeal membrane oxygenation, invasive mechanical ventilation, or both, (%): (2.0) %
[1]; day 14
  clinical improvement rate day 14, (%): (39.6) %
[1]; [3]
  7-level scale on day 14, 2: Not hospitalized, but unable to return to normal activities, (%): (43.8) %
  7-level scale on day 14, 3: Hospitalized, no need for supplemental oxygen, (%): (31.2) %
  7-level scale on day 14, 4: Hospitalized, requiring supplemental oxygen, (%): (16.7) %
  7-level scale on day 14, 5: Hospitalized, requiring nasal high-flow oxygen therapy or non-invasive mechanical ventilation, (%): (6.3) %
  7-level scale on day 14, 6: Hospitalized, requiring extracorporeal membrane oxygenation, invasive mechanical ventilation, or both, (%): (2.0) %
[1]; day 28
  clinical improvement rate day 28, (%): 77.1%
[1]; day 28, listed as IFN- α
  clinical improvement rate day 28, (%): (77.1) %
[1]; [4]
  7-level scale on day 28, 2: Not hospitalized, but unable to return to normal activities, (%): (91.6) %
  7-level scale on day 28, 3: Hospitalized, no need for supplemental oxygen, (%): (2.1) %
  7-level scale on day 28, 4: Hospitalized, requiring supplemental oxygen, (%): (4.2) %
  7-level scale on day 28, 6: Hospitalized, requiring extracorporeal membrane oxygenation, invasive mechanical ventilation, or both, (%): (2.1) %
[1]; human, in vivo
  Deterioration rate, (%): (2.1) %
[1]; added to baseline treatment
  Time for clinical improvement (days), median: 14.0 days
[1]
  Time for radiographic improvement (days), median: 10.0 days
  Time for Viral nucleic acid to turn negative (days), median: 10.0 days
  serious adverse reaction (cases): 1

B1: rSIFN-co: new type of genetically engineered interferon produced by changing 65 bases of the genetic code of IFN-α; amino acid sequence SEQ ID NO.2 (protein)
chain: MCDLPQTHSLGNRRALILLAQMRRISPFSCLKDRHDFGFPQEEFDGNQFQKAQAISVLEMIQQTFNLFSTKDSSAAWDESLLEKFYTELYQQLNDLEACVIQEVGVEETPLMNVDSILAVKKYFQRITLYLTEKKYSPCAWEVVRAEIMRSFSLSTNLQERLRRKE
modifications: rSIFN-co Synthetic amino acid sequence
SARS-CoV-2 virus; MOI: 0.005 (50 PFU)
  TI (CC50/EC50): 5.35×10^7
  EC50 Experiment 1: 0.01531 ng/mL
  EC50 Experiment 2: 0.01401 ng/mL
  EC50 Experiment 3: 0.01058 ng/mL
  EC50 means: 0.0133 ng/mL
SARS-CoV-2 virus; MOI: 0.005 (50 PFU), listed as Recombinant super-compound interferon (rSIFN-co)
  TI (CC50/EC50): 5.35 × 10^7
SARS-CoV-2 virus; MOI: 0.05 (500 PFU)
  TI (CC50/EC50): 5.77×10^6
  EC50 Experiment 1: 0.1418 ng/mL
  EC50 Experiment 2: 0.1257 ng/mL
  EC50 Experiment 3: 0.1024 ng/mL
  EC50 means: 0.1233 ng/mL
SARS-CoV-2 virus; MOI: 0.05 (500 PFU), listed as Recombinant super-compound interferon (rSIFN-co)
  TI (CC50/EC50): 5.77 × 10^6
SARS-CoV-2 virus; MOI: 0.5 (5000 PFU)
  TI (CC50/EC50): 4.71×10^6
  EC50 Experiment 1: 0.1886 ng/mL
  EC50 Experiment 2: 0.1397 ng/mL
  EC50 Experiment 3: 0.1253 ng/mL
  EC50 means: 0.1512 ng/mL
SARS-CoV-2 virus; MOI: 0.5 (5000 PFU), listed as Recombinant super-compound interferon (rSIFN-co)
  TI (CC50/EC50): 4.71 × 10^6
SARS-CoV-2 virus; result in words
  inhibition of SARS-CoV-2 replication in Vero-E6 cell model: dose-dependent manner
[1]; Day 7
  Radiographic Improvement Rate Day 7, (%): (43.5) %
  Rate for Viral nucleic acid to turn negative Day 7, (%): (50.0) %
[1]; Day 7, rSIFN-co vs IFN-α
  Radiographic Improvement Rate Day 7, differences (rate difference): 18.5
  Rate for Viral nucleic acid to turn negative Day 7, differences (rate difference): 18.7
[1]; Day 14
  Radiographic Improvement Rate Day 14, (%): (84.8) %
  Rate for Viral nucleic acid to turn negative Day 14, (%): (76.1) %
[1]; Day 14, rSIFN-co vs IFN-α
  Radiographic Improvement Rate Day 14, differences (rate difference): 18.1
  Rate for Viral nucleic acid to turn negative Day 14, differences (rate difference): 11.5
[1]; Day 28
  Radiographic Improvement Rate Day 28, (%): (91.3) %
  Rate for Viral nucleic acid to turn negative Day 28, (%): (97.8) %
[1]; Day 28, rSIFN-co vs IFN-α
  Radiographic Improvement Rate Day 28, differences (rate difference): 12.1
  Rate for Viral nucleic acid to turn negative Day 28, differences (rate difference): 12.4
[1]; day 7
  clinical improvement rate day 7, (%): (10.9) %
[1]; [2]
  7-level scale on day 7, 2: Not hospitalized, but unable to return to normal activities, (%): (13.0) %
  7-level scale on day 7, 3: Hospitalized, no need for supplemental oxygen, (%): (19.6) %
  7-level scale on day 7, 4: Hospitalized, requiring supplemental oxygen, (%): (50.0) %
  7-level scale on day 7, 5: Hospitalized, requiring nasal high-flow oxygen therapy or non-invasive mechanical ventilation, (%): (17.4) %
[1]; day 7, rSIFN-co vs IFN-α
  clinical improvement rate day 7, differences (rate difference): 4.6
[1]; day 14
  clinical improvement rate day 14, (%): (65.2) %
[1]; [3]
  7-level scale on day 14, 2: Not hospitalized, but unable to return to normal activities, (%): (58.7) %
  7-level scale on day 14, 3: Hospitalized, no need for supplemental oxygen, (%): (21.7) %
  7-level scale on day 14, 4: Hospitalized, requiring supplemental oxygen, (%): (17.4) %
  7-level scale on day 14, 5: Hospitalized, requiring nasal high-flow oxygen therapy or non-invasive mechanical ventilation, (%): (2.2) %
[1]; day 14, rSIFN-co vs IFN-α
  clinical improvement rate day 14, differences (rate difference): 25.6
[1]; [4]
  7-level scale on day 28, 2: Not hospitalized, but unable to return to normal activities, (%): (95.6) %
  7-level scale on day 28, 3: Hospitalized, no need for supplemental oxygen, (%): (2.2) %
  7-level scale on day 28, 4: Hospitalized, requiring supplemental oxygen, (%): (2.2) %
[1]; day 28, rSIFN-co vs IFN-α
  clinical improvement rate day 28, differences (rate difference): 16.4
[1]; added to baseline treatment
  Time for clinical improvement (days), median: 11.5 days
[1]
  Time for radiographic improvement (days), median: 8.0 days
  Time for Viral nucleic acid to turn negative (days), median: 7.0 days
  serious adverse reaction (cases): no serious adverse reaction
[1]; rSIFN-co vs IFN-α
  Deterioration rate, differences (rate difference): −2.1
[1]; rSIFN-co vs IFN-α, Cox model
  Time for Viral nucleic acid to turn negative, differences (hazard ratio): 1.74
  Time for clinical improvement, differences (hazard ratio): 1.76
  Time for radiographic improvement, differences (hazard ratio): 2.19
Vero-E6 cells
  CC50 Experiment 1: 651000 ng/mL
  CC50 Experiment 2: 806000 ng/mL
  CC50 Experiment 3: 680000 ng/mL
Vero-E6 cells; mean of 3 experiments
  CC50 means: 712000 ng/mL
